# Laboratory results taken from patent US20040253242A1.
# Target: cMpl receptor (human (cloned from Tf-1 cells, a human cell line)) (UniProt P40238)
# Assay: cell-based or functional assay
substance,measurement,value
TPO (from UniProt P40225 22-353) (ligand),"Relative Fold Luciferase activity (c-Fos promoter), CMpl-R transfected NIH3T3 cells; +TPO",2.32 fold
